According to patent US8420311B2, “Method to block the infection by flaviviruses, molecules and uses” (Centro de Ingenieria Genetica y Biotecnologia, priority 2006, dated 2013):

Columns and labels:
[1] = tested on: DV1 West Pac 74; test: Inhibition of the infection of Vero cells by a natural ligand of the A2MR receptor or anti-receptor antibodies (lytic plaques); format: cell-based, dengue virus; details: inhibition percentage; RAP13 and BSA 100 μg/mL, antibody preparations 1/100 dilution; average of three determinations
Experimental: (§1) Vero cells were grown in 24-well plates to approximately 90% confluence, and washed twice with MEM medium without FCS. The dilutions containing the proteins or the antibodies, according to the objective of the assay, were then added and incubated for 1 hour at 37° C. After the incubation, the virus was added at a multiplicity of infection of 0.1, followed by a subsequent incubation for 1 hour at 37° C. At the end of the second incubation, the unbound virus was eliminated by washing, and the cells were incubated for 5 days at 37° C. in high density medium (MEM supplemented with non essential aminoacids, 1% FCS, 1% carboxymethylcellulose) in order to propitiate the appearance of lytic plaques. The plaques were visualized by staining with 0.1% Naphtol Blue Black in 0.15 Mol/L sodium acetate. Two replicates were used per experimental point in each assay, and three independent determinations were performed. The inhibition percentage was calculated according to the expression
(§2) The assay for the inhibition of infection was performed on 24-well plates seeded with a monolayer of Vero cells at approximately 90% confluence. The dilution of the virus was adjusted to obtain approximately 20 lytic plaques per well. […] There were no significant reductions when the cells were pre-incubated with BSA or with antibody preparations against an unrelated antigen.

[2] = tested on: DV3 CH53489; test: as above; format: cell-based, dengue virus; details: inhibition percentage; RAP13 and BSA 100 μg/mL, antibody preparations 1/100 dilution; average of three determinations
Experimental: as §1, §2

[3] = tested on: DV4 TVP360; test: as above; format: cell-based, dengue virus; details: inhibition percentage; RAP13 and BSA 100 μg/mL, antibody preparations 1/100 dilution; average of three determinations
Experimental: as §1, §2

[4] = tested on: DV2 S16803; test: as above; format: cell-based, dengue virus
Experimental: FIG. 8. Effect of recombinant RAP on the infection of Vero cells with DV2, strain S16803. Vero monolayers at 90% confluence were pre-incubated with different dilutions of RAPR13 or BSA, for 1 hour at 37° C., followed by the addition of the viral preparation at a multiplicity of infection of 1 and another incubation at 37° C. for 1 hour. After eliminating the unbound viruses, MEM medium supplemented with non-essential aminoacids, 1% FCS and 1% CMC was added, and the cells were incubated for 5 days at 37° C. The lytic plaques were visualized by staining the monolayer with Naphtol Blue Black. The assays were performed in 24-well plates, using duplicates for each point of the assay.
Vero cells were grown in 24-well plates to approximately 90% confluence, and washed twice with MEM medium without FCS. The dilutions containing the proteins or the antibodies, according to the objective of the assay, were then added and incubated for 1 hour at 37° C. After the incubation, the virus was added at a multiplicity of infection of 0.1, followed by a subsequent incubation for 1 hour at 37° C. […] The inhibition percentage was calculated according to the expression […]

[5] = tested on: Vero cells; test: Binding of fluoresceinated proteins to the surface of Vero cells (flow cytometry); format: cell-based, monkey
Experimental: FIG. 7. Inhibition of the binding of DIIIE2J to Vero cells by A2M and RAPR13. The pre-fixed cells were incubated with the fluoresceinated proteins, and the intensity of the fluorescence due to binding of the fluoresceinated ligands to the cells was measured by flow cytometry. Each experimental point represents data gathered from a minimum of 20 000 cells. (A) Binding of A2M and RAPR13 to the cells. The depicted values correspond to the average of the intensity of the fluorescence at each point of the assay minus the fluorescence obtained with untreated cells. (B) and (C) The cells were incubated with fluoresceinated DIIIE2J in the presence or absence of the non-fluoresceinated ligands, using the molar ratio indicated on each case. The % binding was calculated from the ratio of the average intensity of the fluorescence of the cells incubated with the mixture of fluoresceinated DIIIE2J plus the proteins, between that of the cells incubated only with fluoresceinated DIIIE2J.
In the case of cultured Vero cells, they were detached from the surface of the culture flask without using proteases, by incubation with PBS pH 7.4, 5 mM EDTA for 10 min. at 37° C., gently tapping the outside of the flask.
The cells, collected and washed as described above, were incubated in fixing solution (PBS pH 7.4, 2% paraformaldehyde, 0.01% NaN3, 1 mM CaCl2, 1 mM MgCl2 for 30 min at 4° C., and the fixing solution was then eliminated by centrifugation at 350×g for 5 min a 4° C. […] The intensity of the fluorescence was quantified by flow cytometry on a PAS III cytometer (Partec, Germany). The values for each experimental point were calculated from measurements on a minimum of 20 000 cells.
Given that this cell line is derived from monkey kidney cells and that the ligands for the A2MR receptor used in the assays are of human origin, a preliminary and necessary step was the corroboration of the binding of the RAPR13 and A2M MeNH2 proteins to Vero cells. With this aim, these proteins were fluoresceinated, and their binding to the surface of Vero cells was measured using flow cytometry. […]

B1: RAPR13: recombinant human LRPAP1 (RAP) protein with N-terminal tag of 6 histidines, SEQ ID. 26 (protein, listed as Homo sapiens)
chain: MGSSHHHHHHSSGLVPRGSHMYSREKNQPKPSPKRESGEEFRMEKLNQLWEKAQRLHLPPVRLAELHADLKIQERDELAWKKLKLDGLDEDGEKEARLIRNLNVILAKYGLDGKKDARQVTSNSLSGTQEDGLDDPRLEKLWHKAKTSGKFSGEELDKLWREFLHHKEKVHEYNVLLETLSRTEEIHENVISPSDLSDIKGSVLHSRHTELKEKLRSINQGLDRLRRVSHQGYSTEAEFEEPRVIDLWDLAQSANLTDKELEAFREELKHFEAKIEKHNHYQKQLEIAHEKLRHAESVGDGERVSRSREKHALLEGRTKELGYTVKKHLQDLSGRISRARHNEL
modifications: N-terminal His6 tag
inhibition of the infection, DV1 [1]: 65
inhibition of the infection, DV3 [2]: 60
inhibition of the infection, DV4 [3]: 75
inhibition of the infection, DV2 ([4]; inhibition percentage, RAP13 and BSA 100 μg/mL, antibody preparations 1/100 dilution, average of three determinations): 76
inhibition of the infection for DV2, concentration dependence ([4]; lytic plaque reduction assay, dilutions of RAPR13 (FIG. 8)): dependent on the protein concentration
binding to the surface of Vero cells ([5]; fluoresceinated proteins (FIG. 7A)): concentration-dependant and saturable binding behavior
binding of fluoresceinated A2M_MeNH2 to Vero cells in the presence of unlabelled protein ([5]; unlabelled protein at 100-fold molar excess, 30 min. at 4° C. (FIG. 7B)): decrease in fluorescence
